{"source": "paper doi:10.1101/2020.06.07.137802", "about": "(bioRxiv, 2020)", "biological_target": "T1, recombinant, soluble extracellular b1b2 domain of human NRP1, wild type (residues 274-584) (human, UniProt O14786 274-584)", "T1 sequence": "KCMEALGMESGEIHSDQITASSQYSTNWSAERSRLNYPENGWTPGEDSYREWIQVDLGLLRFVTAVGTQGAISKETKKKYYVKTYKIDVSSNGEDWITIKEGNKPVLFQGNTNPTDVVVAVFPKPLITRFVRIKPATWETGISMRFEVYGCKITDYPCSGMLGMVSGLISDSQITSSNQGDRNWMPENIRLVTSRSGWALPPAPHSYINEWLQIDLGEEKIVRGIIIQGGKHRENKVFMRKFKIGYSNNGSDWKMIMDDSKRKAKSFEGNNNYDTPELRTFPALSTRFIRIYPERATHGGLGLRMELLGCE", "note": "*: point of attachment. Biotin = O=C1N[C@H]2[C@H](CS[C@H]2CCCCC(=O)*)N1; Ahx = NCCCCCC(=O)O"}
{"binder": "{Biotin-Ahx}-RPARPAR-OH (also: on silver nanoparticles)", "note": "[biotin-Ahx-RPARPAR-OH, prototypic NRP1-binding CendR peptide, on silver nanoparticles (AgNP-CendR)]", "values": [{"measurement": "binding result", "value": "binds"}]}
